According to patent publication US20150258217A1, “Methods of Synthesizing and Using Peg-Like Fluorochromes” (THE GENERAL HOSPITAL CORPORATION, priority 2012, published 2015):
Each block holds one compound with its values, some of them ahead of it.

Assays:
[1] = PN and peptide size (volume, diameter) by FPLC gel filtration (Superdex 200, globular protein standards); assay type: physicochemical; details: for Molecular Volume: Table 3C, proposed Example 4 compounds; for diameter: FPLC gel filtration; for Volume FPLC / Volume FPLC (diameter): Table 5; for Volume FPLC: globular protein equivalent molecular weight; for Molecular Volume FPLC: Table 3B, dipeptides; for Volume FPLC (diameter): converted from globular protein equivalent MW
Procedure: DOTA-Lys-Cys(IR783)-NH2 is then dissolved in DMSO, with 2 equivalents of an NHS ester of PEG and 6 equivalents of DIPEA. The reaction was at room temperature for 5 days. Product was purified by reverse phase HPLC separation. Product molecular weight was by matrix-assisted laser desorption ionization time-of-flight mass spectrometry (MALDI-TOF MS), with product molecular volume by size exclusion FPLC using globular protein standards (GE Healthcare life science AKTApurifier 10).
The mass spec of low molecular weights (MW) were obtained by MS-ESI Micromass (Waters) and high MW molecules were determined through MALDI-TOF analyses at the Tufts University Core Facility. RP-HPLC (Varian ProStar detector and delivery modules) employed an eluant A (0.1% TFA/water) and eluant B (0.1% TFA and 9.9% water in acetonitrile). Probe size (volume) was determined by FPLC using an ÄKTA Purifier 10 and Superdex™ 200 10/300GL column (GE Healthcare) with a running buffer of 0.05 M sodium phosphate, 0.15 M NaCl (0.1% Tween, pH 7.2) and flow rate of 0.8 ml/min. Standards (GE Healthcare) were Ferritin, Ribonuclease A, Carbonic Anhydrase, and Conalbumin and Blue Dextran 2000. To obtain probe volumes, Mr (apparent molecular weight based on size exclusion retention) was plotted versus Kav. Kav=(Ve−Vo)/(Vt−Vo), Vt=total volume, Ve=elution volume, Vo=void volume.
The column was calibrated with globular protein standards, and globular protein equivalent molecular weights (in kDa) were obtained (Table 5, column 5). These were converted to PN diameters in nm using the relationship: Radius in nm=[…] where M is the molecular weight of a globular protein expressed in daltons (see Erickson, “Size and Shape of Protein Molecules at the Nanometer Level Determined by Sedimentation, Gel Filtration, and Electron Microscopy”, Biological Procedures Online 2009, 11(1): 32-50). PN's diameters ranged from 3.0 to 11.8 nm (see FIG. 23a). Using PEG's of 5 kDa and 30 kDa, selected for their low polydispersity, PN's were synthesized using IR-783, Cy3 and Fluorescein (see FIG. 22a) and their sizes determined (see FIGS. 23a, 23b, 23c). With the 5 kDa PEG and these three fluorochromes (see the magenta chromatograms in FIGS. 22a, 23b and 23c) PN diameters were 4.3 nm. With the 30 kDa PEG and these three fluorochromes (blue chromatograms, 23a, 23b, 23c), PN diameters were now 10.0 nm. For reference, the diameter of a 67 kDa albumin determined by this method was 5.4 nm.

[2] = Quantum yield determination; assay type: physicochemical; details: for Quant. Yield: Table 5, in PBS
Procedure: Quantum yields were determined as described in Demas et al., “Measurement of photoluminescence quantum yields. Review”, Journal of Physical Chemistry 75, 991-1024 (1971), and Shao et al., “Facile Synthesis of Monofunctional Pentamethine Carbocyanine Fluorophores. Dyes and pigments: an international journal 90, 119-122 (2011). For IR-783 a reference quantum yield of 0.043 was used (see Li et al., “Synthesis and characterization of glucosamine-bound near-infrared probes for optical imaging”, Organic letters 8, 3623-3626, 2006); for fluorescein a reference quantum yield was […] (see Sjoback et al., “Absorption and florescence properties of fluorescein”, Spectrohimica Acta Part A 51, L7-L21, 1995). For Cy3 a reference quantum yield of 0.31 was used (Luminprobe Inc). For PN(783)'s, excitation was at 730 nm and emission spectra were recorded from 765 nm to 870 nm in PBS and maximum emission used. For PN(545)'s, excitation was at 515 nm and emission spectra were recorded from 538 nm to 700 nm in PBS and maximum emission used. For PN(497)'s, excitation was at 450 nm and emission spectra were recorded from 475 nm to 620 nm in PBS and maximum emission used. Absorbance of each probe was adjusted less than 0.1. Measurements were made in triplicate and are expressed as mean±SD.

[3] = system: HT-29, a human colon carcinoma cell line; assay: PN and peptide binding to cells (non-specific binding, FACS); assay type: cell-based; details: HT-29 cells; for Cell NSB (percent of cells with fluorescence higher than unstained cell): 30 min at 37° C., FACS
Procedure: HT-29, a human colon carcinoma cell line, was from the American Tissue Culture Collection and maintained according to their instructions. Cells were seeded on 24-well plates at 5×10^5 cells/well in culture medium (RPMI 1640 with 10% FBS) the day before the assay. The day of assay, medium was removed, wells rinsed twice with DPBS (+Ca, +Mg), and 100 μl of 2% FBS/DPBS (+Ca, +Mg) added. 100 μL of Nanoprobes (2 μM) in DPBS (+Ca, +Mg) was added to cells and incubated for 30 min at 37° C. (Probe concentrations were determined spectrophotometrically (783 nm, extinction coefficient of 314 471 cm^−1 M^−1 for IR-783; 497 nm, extinction coefficient of 68 000 cm^−1 M^−1 for Fluorescein; 545 nm, extinction coefficient of 150 000 cm^−1 M^−1 for Cy3). Cells were detached by Trypsin/EDTA and assayed for fluorescence by FACS (BD 7 laser LSR2 for nanoprobes with IR-783; BD 3 laser LSR2 for nanoprobes with Fluorescein or Cy3).

[4] = Probe volume determination by FPLC (Superdex 75, globular protein standards); assay type: physicochemical
Procedure: Size (volume) was determined by FPLC using an ÄKTA Purifier 10 and Superdex™ 75 10/300 GL column (GE Healthcare Lifesciences) with a running buffer of 0.05 M sodium phosphate, 0.15 M NaCl (0.1% Tween, pH 7.2) and flow rate of 0.5 ml/min. The protein standards (Gel Filtration Calibration Kit LMW, code no. 28-4038-41, GE Healthcare) (0.3 mg/ml, mixture of Aprotinin, Ribonuclease A, Ovalbumin, and Conalbumin) and Blue Dextran 2000 were used. To obtain volumes, Mr (apparent molecular weight based on size exclusion retention) was plotted versus Kav. Kav=(Ve−Vo)/[…], Vt=total volume, Ve=elution volume, Vo=void volume.

[5] = system: GFP expressing BT-20 breast carcinoma xenograft; assay: Tumor surface fluorescence after peritumoral (DMR) or IV injection; assay type: in vivo, mouse
Procedure: Day 1, BT-20 cells were planted into 24-well plate at 750,000 cells/well in culture medium (EMEM with 10% FBS). Day 2, the old culture medium was replaced with new culture medium containing lenti-virus (1×10^8 particles/mL) and protamine sulphate (American Pharmaceutical Partners, Los Angelus, Calif.; 10 mg/mL; 1:500 of total volume of medium). Day 3, after 16 hours of transfection, medium was changed to the culture medium (EMEM with 10% FBS). 8 hours later, green cells could be seen via fluorescence microscope.
All animal experiments were approved by the Institutional Review Committee of Massachusetts General Hospital. Female nude mice (25-30 g; 6-8 weeks old; nu/nu; Cox 7, Massachusetts General Hospital, Boston, Mass.) were anesthetized with isoflurane/O2. Tumor cell implantation was performed both sides around the shoulder. 200 μl of cell suspension containing 10^6 cells in Matrigel (BD) was injected subcutaneously. Tumor cells were inoculated for 7 to 10 days.
The diffusion and molecular retention required of the DMR technique with a tumor bearing model were investigated. We peritumorally injected the RGD probe into an animal bearing two GFP expressing BT-20 breast carcinomas and monitored tumor GFP fluorescence and probe fluorescence as a function of time after injection. The non-integrin binding RAD probe was injected into a second animal also bearing two tumors. Overlaying purple probe fluorescence over green GFP yields white. […] Tumor surface fluorescence from both probes was quantified by the use of solution standards.
In FIG. 8a), two animals bearing two tumors were PT injected with the RGD probe or RAD probe as indicated and surface fluorescence images were obtained. […] In FIG. 8b), quantitation of tumor surface fluorescence after injections of the RGD or RAD probes as above. Surface fluorescence was quantified through the use of standard solutions.
To compare the DMR and intravenous (IV) methods, surface fluorescence images of tumor GFP and RGD probe fluorescence were obtained with skin removed, and overlays from the two signals obtained. With both DMR and IV administration, probe fluorescence extended beyond tumor GFP margins to a stromal area beyond the tumor. However, tumor fluorescence was far higher with DMR than IV injection, even though dose was far lower (50 pmoles/mouse by DMR versus 2000 pmoles/mouse by IV).
In FIG. 9a), skin covering GFP-BT-20 tumor was removed. Shown are visible GFP fluorescence, probe (CyAL5.5) fluorescence, and the overlay of GFP and probe fluorescence plus an X-ray image. Green GFP plus purple CyAL5.5 fluorescence yielded a white overlaid image. In FIG. 9b), with DMR or IV, probe fluorescence included a stromal zone of integrin binding surrounding the tumor was seen. […]

[6] = Table 3A, CyAL5.5 tetrapeptides
[7] = Table 3C, proposed Example 4 compounds

Compound: 5 kDa PEG-Cys(IR-783)-OH
Molecular Volume [1]: >20 kDa

Quantum Yield ([2]; Table 3B, IR-783 dipeptides): 0.041
Compound: CC1(C)C(/C=C/C=C/C=C/C=C2/N(CCCCS(=O)(=O)O)c3ccc4ccccc4c3C2(C)C)=[N+](CCCCS(=O)(=O)O)c2ccc3ccccc3c21 [ICG, Indocyanine green, reference compound]

Compound: (DOTA)Lys(PEG5K)-Cys(Cy3) [PN(545)4.3]
Quant. Yield [2]: 0.59 | Cell NSB (percent of cells with fluorescence higher than unstained cell) [3]: 31% | diameter [1]: 4.3 nm | Volume FPLC [1]: 35 kDa

Compound: (DOTA)Lys(PEG5K)-Cys(FI) [PN(497)4.3]
Quant. Yield [2]: 0.59 | Cell NSB (percent of cells with fluorescence higher than unstained cell) [3]: 0.2% | diameter [1]: 4.3 nm | Volume FPLC [1]: 35 kDa

Compound: (DOTA)Lys(PEG30K)-Cys(FI) [PN(497)10.0]
Quant. Yield [2]: 0.60 | Cell NSB (percent of cells with fluorescence higher than unstained cell) [3]: 0.1% | Volume FPLC [1]: 435 kDa

Compound: (DOTA)Lys(PEG40K)-Cys(IR-783) [PN(783)11.7]
Quantum Yield ([2]; Table 3B, IR-783 dipeptides): 0.18 | Quant. Yield [2]: 0.16 | Molecular Volume FPLC [1]: 690 kDa | Volume FPLC (diameter) [1]: 11.7 nm | Volume FPLC [1]: 690 kDa

Compound: (DOTA)Lys-Cys(Cy3)
Quant. Yield [2]: 0.32 | binding to cells (FACS, FIG. 30) [3]: binds to cells | Cell NSB (percent of cells with fluorescence higher than unstained cell) [3]: 98% | Volume FPLC [1]: 0.6 kDa

Compound: (DOTA)Lys-Cys(Fluorescein) [(DOTA)Lys-Cys(FI)]
Quant. Yield [2]: 0.50 | binding to cells (FACS, FIG. 30) [3]: binds cells very weakly | Cell NSB (percent of cells with fluorescence higher than unstained cell) [3]: 0.4%

Compound: (DOTA)Lys-Cys(IR-783)
Quantum Yield ([2]; Table 3B, IR-783 dipeptides): 0.053 | Quant. Yield [2]: 0.053 | binding to cells (FACS, FIG. 30) [3]: binds cells | Cell NSB (percent of cells with fluorescence higher than unstained cell) [3]: 95% | diameter [1]: 1.1 nm | Molecular Volume FPLC [1]: 0.600 kDa | Volume FPLC (diameter) [1]: 1.10 nm | Volume FPLC [1]: 0.600 kDa

Compound: DOTA-Lys(CyAL5.5)-Lys(5 kDa PEG)- βAla -Lys(N3)-NH2 [Compound 5b]
Quantum Yield [2, 6]: 0.17 | Molecular Volume ([4]; Table 3A, tetrapeptides): <1 kDa

Compound: DOTA-Lys(CyAL5.5)-Lys(5 kDa PEG)- βAla -Lys(sPEG-RGD) [Compound 7a]
Quantum Yield ([2]; Table 4, DMR probes): 0.20 | tumor retention of probe fluorescence after peritumoral injection ([5]; BT-20 tumors, 24 hours post injection): retained by the tumor | Tumor fluorescence ([5]; DMR, 50 pmoles/mouse): 15.0 au | Tumor fluorescence ([5]; IV, 2000 pmoles/mouse): 1.5 au | Equiv. Vol. ([4]; FPLC, globular protein equivalent volume): 25 kDa | Molecular Volume ([4]; Table 4, DMR probes): 20-30 kDa

Compound: DOTA-Lys(CyAL5.5)-Lys(NH2)-β-Ala-Lys(N3) [Compound 5a]
Quantum Yield [2, 6]: 0.061 | Molecular Volume ([4]; Table 3A, tetrapeptides): <1 kDa

Compound: DOTA-Lys(CyAL5.5)-Lys(NH2)-β-Ala-Lys(N3-DBCO-PEG4-cRGD)-NH2 [Compound 6a]
Quantum Yield [2, 6]: 0.082 | Molecular Volume ([4]; Table 3A, tetrapeptides): <1 kDa

Compound: DOTA-Lys(CyAL5.5)-Lys- βala -Lys(sPEG-RAD) [Compound 6b]
Quantum Yield [2, 6]: 0.081 | Molecular Volume ([4]; Table 3A, tetrapeptides): <1 kDa

Compound: DOTA-Lys(PEG 40 kDa)-Cys(Fl)-NH2
Quantum Yield [2, 7]: 0.60 | Molecular Volume [1]: 690 kDa

Compound: NH2-Cys(IR-783)-OH
Quantum Yield [2, 7]: <0.10 | Molecular Volume [1]: <2 kDa
